This is an account of results in US20140274782A1, “AFFINITY REAGENTS AND METHODS FOR DETECTION, PURIFICATION, AND PROTEOMIC ANALYSIS OF METHYLATED PROTEINS” (The Board of Trustees of the Leland Stanford Junior …, priority 2013, published 2014).

In experiment [1] the test system is 3×MBT domain of L3MBTL1. Briefly: Triple SILAC pull-down, 3xMBT/3xMBTD355N ratio (cytoplasmic, nuclear and chromatin fractions of 293T cells).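 For all read-outs here: proteins quantified with MaxQuant, requiring at least two unique peptides and quantification in both label directions, normalized to the mean of proteins from a digested loading control.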 It is filed as binding, human. To be noted: SILAC ratio, pull-down 3xMBT vs 3xMBTD355N; for 3xMBT/D355N UNC Heavy: experiment with UNC0638 in heavy SILAC media; for 3xMBT/D355N UNC Light: experiment with UNC0638 in light SILAC media.

Experiment [2] deals with T1, G9a and GLP (Homo sapiens, UniProt Q96KQ7+Q9H9B1).
T1 sequence (Q96KQ7 2-1210 limits assumed): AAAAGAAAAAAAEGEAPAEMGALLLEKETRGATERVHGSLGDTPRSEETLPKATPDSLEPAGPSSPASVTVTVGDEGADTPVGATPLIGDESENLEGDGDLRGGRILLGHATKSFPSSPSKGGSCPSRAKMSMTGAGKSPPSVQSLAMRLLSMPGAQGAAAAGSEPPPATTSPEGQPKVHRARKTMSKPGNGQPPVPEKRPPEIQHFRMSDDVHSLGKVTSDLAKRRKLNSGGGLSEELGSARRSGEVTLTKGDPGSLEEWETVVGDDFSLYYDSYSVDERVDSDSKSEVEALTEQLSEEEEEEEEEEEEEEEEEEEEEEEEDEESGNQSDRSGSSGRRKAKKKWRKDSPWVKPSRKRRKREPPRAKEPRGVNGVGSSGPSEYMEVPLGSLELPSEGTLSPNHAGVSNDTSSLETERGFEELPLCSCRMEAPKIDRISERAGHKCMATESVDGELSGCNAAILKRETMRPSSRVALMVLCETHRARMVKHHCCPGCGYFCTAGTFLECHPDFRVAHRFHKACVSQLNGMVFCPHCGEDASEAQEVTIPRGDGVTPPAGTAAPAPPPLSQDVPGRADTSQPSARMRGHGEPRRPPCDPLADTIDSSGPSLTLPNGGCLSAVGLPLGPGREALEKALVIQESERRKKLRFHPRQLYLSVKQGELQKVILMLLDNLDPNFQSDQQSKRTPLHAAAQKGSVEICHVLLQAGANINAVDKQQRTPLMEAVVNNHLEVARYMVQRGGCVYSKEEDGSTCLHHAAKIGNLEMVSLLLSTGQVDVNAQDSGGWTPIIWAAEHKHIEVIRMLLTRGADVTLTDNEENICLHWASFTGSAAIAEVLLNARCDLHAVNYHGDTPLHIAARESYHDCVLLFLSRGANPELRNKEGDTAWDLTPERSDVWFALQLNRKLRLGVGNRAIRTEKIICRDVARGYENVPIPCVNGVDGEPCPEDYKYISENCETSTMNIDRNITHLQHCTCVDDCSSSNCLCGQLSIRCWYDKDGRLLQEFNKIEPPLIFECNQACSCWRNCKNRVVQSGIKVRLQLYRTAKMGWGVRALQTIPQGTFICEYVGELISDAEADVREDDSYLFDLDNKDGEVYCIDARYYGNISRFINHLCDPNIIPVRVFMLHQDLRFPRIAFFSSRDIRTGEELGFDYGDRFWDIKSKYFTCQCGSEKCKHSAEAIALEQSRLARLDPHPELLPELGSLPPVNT
T1 sequence (Q9H9B1 2-1298 limits assumed): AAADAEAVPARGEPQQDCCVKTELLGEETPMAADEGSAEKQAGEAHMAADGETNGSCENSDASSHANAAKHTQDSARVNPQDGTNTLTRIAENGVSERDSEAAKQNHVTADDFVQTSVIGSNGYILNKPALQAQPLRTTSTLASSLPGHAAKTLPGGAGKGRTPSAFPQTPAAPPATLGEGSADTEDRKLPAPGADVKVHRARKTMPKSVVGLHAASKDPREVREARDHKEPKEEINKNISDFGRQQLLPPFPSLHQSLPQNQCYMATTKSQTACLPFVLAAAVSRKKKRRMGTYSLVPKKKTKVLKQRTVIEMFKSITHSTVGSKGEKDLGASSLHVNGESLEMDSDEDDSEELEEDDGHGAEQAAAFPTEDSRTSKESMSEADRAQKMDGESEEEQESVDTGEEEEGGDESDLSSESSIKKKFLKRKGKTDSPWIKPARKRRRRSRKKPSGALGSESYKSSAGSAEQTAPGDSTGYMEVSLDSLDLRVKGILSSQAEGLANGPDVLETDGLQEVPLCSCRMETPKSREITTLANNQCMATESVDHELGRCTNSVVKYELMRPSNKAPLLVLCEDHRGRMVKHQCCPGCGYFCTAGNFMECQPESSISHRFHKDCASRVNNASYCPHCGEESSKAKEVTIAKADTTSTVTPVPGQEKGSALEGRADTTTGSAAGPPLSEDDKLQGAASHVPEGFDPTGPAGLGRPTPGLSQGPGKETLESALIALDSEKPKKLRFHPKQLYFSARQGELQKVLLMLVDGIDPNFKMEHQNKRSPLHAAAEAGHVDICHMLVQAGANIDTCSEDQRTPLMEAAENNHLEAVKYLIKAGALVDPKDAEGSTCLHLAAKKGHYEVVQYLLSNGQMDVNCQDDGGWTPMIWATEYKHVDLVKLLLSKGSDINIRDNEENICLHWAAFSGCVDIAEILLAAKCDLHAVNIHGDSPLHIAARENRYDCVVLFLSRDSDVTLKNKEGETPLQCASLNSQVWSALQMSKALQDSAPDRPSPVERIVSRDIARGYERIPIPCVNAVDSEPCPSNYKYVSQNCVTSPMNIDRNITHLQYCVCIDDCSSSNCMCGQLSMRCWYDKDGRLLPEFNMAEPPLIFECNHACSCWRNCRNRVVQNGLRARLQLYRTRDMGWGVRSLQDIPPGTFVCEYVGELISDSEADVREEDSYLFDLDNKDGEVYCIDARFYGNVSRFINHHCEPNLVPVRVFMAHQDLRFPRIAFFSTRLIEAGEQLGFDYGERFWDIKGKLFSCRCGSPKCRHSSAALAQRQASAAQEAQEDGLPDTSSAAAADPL
Briefly: Triple SILAC pull-down after UNC0638 treatment of 293T cells, DMSO/UNC0638 ratio of protein captured by 3×MBT.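 For all read-outs here: mass spectrometry (Q-Exactive) SILAC quantitation, DMSO/UNC0638 ratio computed after subtracting 3×MBTD355N mutant pull-down background, only proteins with at least twofold 3×MBT over mutant signal considered.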 The arrangement: endogenous in cells; host or cells: HEK 293T. To be noted: for Relative to UNC0638 UNC Light / Relative to UNC0638 UNC Heavy: SILAC ratio DMSO/UNC0638 of protein pulled down with 3xMBT; for Relative to UNC0638 UNC Light: UNC0638 in light SILAC media; for Relative to UNC0638 Average: average of UNC Light and UNC Heavy experiments; for Relative to UNC0638 UNC Heavy: UNC0638 in heavy SILAC media. Type of experiment: cell-based.

B1: UBA1 (protein, UniProt P22314 2-1058, looked up)
Ubiquitin-like …: SSSPLSKKRRVSGPDPKPGSNCSPAQSVLSEVPSVPTNGMAKNGSEADIDEGLYSRQLYVLGHEAMKRLQTSSVLVSGLRGLGVEIAKNIILGGVKAVTLHDQGTAQWADLSSQFYLREEDIGKNRAEVSQPRLAELNSYVPVTAYTGPLVEDFLSGFQVVVLTNTPLEDQLRVGEFCHNRGIKLVVADTRGLFGQLFCDFGEEMILTDSNGEQPLSAMVSMVTKDNPGVVTCLDEARHGFESGDFVSFSEVQGMVELNGNQPMEIKVLGPYTFSICDTSNFSDYIRGGIVSQVKVPKKISFKSLVASLAEPDFVVTDFAKFSRPAQLHIGFQALHQFCAQHGRPPRPRNEEDAAELVALAQAVNARALPAVQQNNLDEDLIRKLAYVAAGDLAPINAFIGGLAAQEVMKACSGKFMPIMQWLYFDALECLPEDKEVLTEDKCLQRQNRYDGQVAVFGSDLQEKLGKQKYFLVGAGAIGCELLKNFAMIGLGCGEGGEIIVTDMDTIEKSNLNRQFLFRPWDVTKLKSDTAAAAVRQMNPHIRVTSHQNRVGPDTERIYDDDFFQNLDGVANALDNVDARMYMDRRCVYYRKPLLESGTLGTKGNVQVVIPFLTESYSSSQDPPEKSIPICTLKNFPNAIEHTLQWARDEFEGLFKQPAENVNQYLTDPKFVERTLRLAGTQPLEVLEAVQRSLVLQRPQTWADCVTWACHHWHTQYSNNIRQLLHNFPPDQLTSSGAPFWSGPKRCPHPLTFDVNNPLHLDYVMAAANLFAQTYGLTGSQDRAAVATFLQSVQVPEFTPKSGVKIHVSDQELQSANASVDDSRLEELKATLPSPDKLPGFKMYPIDFEKDDDSNFHMDFIVAASNLRAENYDIPSADRHKSKLIAGKIIPAIATTTAAVVGLVCLELYKVVQGHRQLDSYKNGFLNLALPFFGFSEPLAAPRHQYYNQEWTLWDRFEVQGLQPNGEEMTLKQFLDYFKTEHKLEITMLSQGVSMLYSFFMPAAKLKERLDQPMTEIVSRVSKRKLGRHVRALVLELCCNDESGEDVEVPYVRYTIR
On to B1, for which, in experiment [1], the “3xMBT/D355N UNC Heavy” value was determined as 0.55 log base 2 and the “3xMBT/D355N UNC Light” value came to 2.51 log base 2. In addition, in experiment [2], the “Relative to UNC0638 UNC Light” value stood at 0.13 log base 2 and the “Relative to UNC0638 Average” value is on record as 0.13 log base 2.

B2: EWSR1 (protein, UniProt Q01844 1-656, looked up)
RNA-binding protein EWS: MASTDYSTYSQAAAQQGYSAYTAQPTQGYAQTTQAYGQQSYGTYGQPTDVSYTQAQTTATYGQTAYATSYGQPPTGYTTPTAPQAYSQPVQGYGTGAYDTTTATVTTTQASYAAQSAYGTQPAYPAYGQQPAATAPTRPQDGNKPTETSQPQSSTGGYNQPSLGYGQSNYSYPQVPGSYPMQPVTAPPSYPPTSYSSTQPTSYDQSSYSQQNTYGQPSSYGQQSSYGQQSSYGQQPPTSYPPQTGSYSQAPSQYSQQSSSYGQQSSFRQDHPSSMGVYGQESGGFSGPGENRSMSGPDNRGRGRGGFDRGGMSRGGRGGGRGGMGSAGERGGFNKPGGPMDEGPDLDLGPPVDPDEDSDNSAIYVQGLNDSVTLDDLADFFKQCGVVKMNKRTGQPMIHIYLDKETGKPKGDATVSYEDPPTAKAAVEWFDGKDFQGSKLKVSLARKKPPMNSMRGGLPPREGRGMPPPLRGGPGGPGGPGGPMGRMGGRGGDRGGFPPRGPRGSRGNPSGGGNVQHRAGDWQCPNPGCGNQNFAWRTECNQCKAPKPEGFLPPPFPPPGGDRGRGGPGGMRGGRGGLMDRGGPGGMFRGGRGGDRGGFRGGRGMDRGGFGGGRRGGPGGPPGPLMEQMGGRRGGRGGPGKMDKGEHRQERRDRPY
As to B2, in experiment [1], the “3xMBT/D355N UNC Heavy” value was 2.09 log base 2 and the “3xMBT/D355N UNC Light” value was determined as 2.82 log base 2. In experiment [2], the “Relative to UNC0638 UNC Heavy” value is given as −0.11 log base 2, the “Relative to UNC0638 UNC Light” value is 0.38 log base 2 and the “Relative to UNC0638 Average” value amounted to 0.14 log base 2.

B3: FTSJD2 (protein, UniProt Q8IYT2 1-770, looked up)
Cap-specific mRNA …: MSKCRKTPVQQLASPASFSPDILADIFELFAKNFSYGKPLNNEWQLPDPSEIFTCDHTELNAFLDLKNSLNEVKNLLSDKKLDEWHEHTAFTNKAGKIISHVRKSVNAELCTQAWCKFHEILCSFPLIPQEAFQNGKLNSLHLCEAPGAFIASLNHYLKSHRFPCHWSWVANTLNPYHEANDDLMMIMDDRLIANTLHWWYFGPDNTGDIMTLKFLTGLQNFISSMATVHLVTADGSFDCQGNPGEQEALVSSLHYCEVVTALTTLGNGGSFVLKMFTMFEHCSINLMYLLNCCFDQVHVFKPATSKAGNSEVYVVCLHYKGREAIHPLLSKMTLNFGTEMKRKALFPHHVIPDSFLKRHEECCVFFHKYQLETISENIRLFECMGKAEQEKLNNLRDCAIQYFMQKFQLKHLSRNNWLVKKSSIGCSTNTKWFGQRNKYFKTYNERKMLEALSWKDKVAKGYFNSWAEEHGVYHPGQSSILEGTASNLECHLWHILEGKKLPKVKCSPFCNGEILKTLNEAIEKSLGGAFNLDSKFRPKQQYSCSCHVFSEELIFSELCSLTECLQDEQVVVPSNQIKCLLVGFSTLRNIKMHIPLEVRLLESAELTTFSCSLLHDGDPTYQRLFLDCLLHSLRELHTGDVMILPVLSCFTRFMAGLIFVLHSCFRFITFVCPTSSDPLRTCAVLLCVGYQDLPNPVFRYLQSVNELLSTLLNSDSPQQVLQFVPMEVLLKGALLDFLWDLNAAIAKRHLHFIIQREREEIINSLQLQN
As for B3, in experiment [1], the “3xMBT/D355N UNC Heavy” value is listed as 2.92 log base 2 and the “3xMBT/D355N UNC Light” value is 3.09 log base 2. Also, in experiment [2], the “Relative to UNC0638 UNC Heavy” value worked out at 0.09 log base 2, the “Relative to UNC0638 UNC Light” value was 0.17 log base 2 and the “Relative to UNC0638 Average” value stood at 0.13 log base 2.

B4: HNRNPF (protein, UniProt P52597 1-415, looked up)
Heterogeneous nuclear …: MMLGPEGGEGFVVKLRGLPWSCSVEDVQNFLSDCTIHDGAAGVHFIYTREGRQSGEAFVELGSEDDVKMALKKDRESMGHRYIEVFKSHRTEMDWVLKHSGPNSADSANDGFVRLRGLPFGCTKEEIVQFFSGLEIVPNGITLPVDPEGKITGEAFVQFASQELAEKALGKHKERIGHRYIEVFKSSQEEVRSYSDPPLKFMSVQRPGPYDRPGTARRYIGIVKQAGLERMRPGAYSTGYGGYEEYSGLSDGYGFTTDLFGRDLSYCLSGMYDHRYGDSEFTVQSTTGHCVHMRGLPYKATENDIYNFFSPLNPVRVHIEIGPDGRVTGEADVEFATHEEAVAAMSKDRANMQHRYIELFLNSTTGASNGAYSSQVMQGMGVSAAQATYSGLESQSVSGCYGAGYSGQNSMGGYD
As for B4, in experiment [1], the “3xMBT/D355N UNC Heavy” value stood at 1.66 log base 2 and the “3xMBT/D355N UNC Light” value came to 2.25 log base 2. Also, in experiment [2], the “Relative to UNC0638 UNC Heavy” value came to 0.28 log base 2, the “Relative to UNC0638 UNC Light” value is recorded as −0.02 log base 2 and the “Relative to UNC0638 Average” value was determined as 0.13 log base 2.
